The values below come from patent US20220024975A1 (ARROWHEAD PHARMACEUTICALS, published 2022).

No end group written: not given here.

In assay [1] the target is T1, αvβ6 integrin (human, UniProt P06756 31-1048; P18564 22-788).
T1 construct: whole, on cells; target is the endogenous integrin on αvβ6 positive-control cell lines; also called Integrin alpha-v beta-6
Nature of the assay: flow cytometry, Cy5-polymer conjugate on H2009 / CAPAN-2 cells. From the text:
B. αvβ6 ligand binding (flow cytometric analyses). To assess for specificity of binding of the αvβ6 ligands to the αvβ6 integrin, each αvβ6 ligand or negative control peptide was conjugated to a Cy5-labeled polymer (as described above) and evaluated for binding to cells. […] H2009 (human lung epithelial adenocarcinoma) and CAPAN-2 (human pancreas adenocarcinoma) cells served as the αvβ6 positive-control cell lines. Cells were detached from culturing flasks with Accutase, washed in PBS, and seeded into 5 ml polystyrene round-bottom tubes at 200,000 cells in 200 μl complete media (culturing media with supplements and fetal calf serum). αvβ6 ligand-polymer conjugates or no-ligand-polymer conjugates were added at 5 μg/ml (polymer-Cy5 concentration) to cells, mixed and incubated at 37° C. for 3 h. […] Samples were analyzed on a BD Biosciences Canto II cytometer equipped with a violet (405 nm), blue (488 nm) and red (633 nm) lasers.
Viable cells were initially gated as the SYTOX blue negative population on the C detector with the violet laser. These viable cells were then assessed for conjugate binding/uptake with the red laser as the Mean Fluorescence Intensity (MFI) of the Cy5 fluorophore. […] A specific MFI Ratio (sMFIr) for each αvβ6 ligand was determined by the formula: […]
(In flow cytometry, cells or beads pass a laser one at a time.)

The target in assay [2] is T1, αvβ6 integrin. Nature of the assay: flow cytometry, Cy5-polymer conjugate 5 µg/ml, H2009 cells. An excerpt:
B. αvβ6 ligand binding (flow cytometric analyses). To assess for specificity of binding of the αvβ6 ligands to the αvβ6 integrin, each αvβ6 ligand or negative control peptide was conjugated to a Cy5-labeled polymer (as described above) and evaluated for binding to cells. […] H2009 (human lung epithelial adenocarcinoma) and CAPAN-2 (human pancreas adenocarcinoma) cells served as the αvβ6 positive-control cell lines. Cells were detached from culturing flasks with Accutase, washed in PBS, and seeded into 5 ml polystyrene round-bottom tubes at 200,000 cells in 200 μl complete media (culturing media with supplements and fetal calf serum). αvβ6 ligand-polymer conjugates or no-ligand-polymer conjugates were added at 5 μg/ml (polymer-Cy5 concentration) to cells, mixed and incubated at 37° C. for 3 h. Incubation at 37° C. facilitated ligand/receptor interaction which may result in static binding to the extracellular cell surface and/or internalized ligand/receptor complexes. The mixture was re-suspended at 1 h intervals. Following a 3 h incubation, cells were washed 2× with 4 ml chilled buffer (PBS-2% FCS) and re-suspended in 200 μl buffer containing 10 μM SYTOX blue stain for live/dead cell gating. Samples were analyzed on a BD Biosciences Canto II cytometer equipped with a violet (405 nm), blue (488 nm) and red (633 nm) lasers.
Viable cells were initially gated as the SYTOX blue negative population on the C detector with the violet laser. These viable cells were then assessed for conjugate binding/uptake with the red laser as the Mean Fluorescence Intensity (MFI) of the Cy5 fluorophore. Data analyses were performed with FlowJo v10.1 software. A specific MFI Ratio (sMFIr) for each αvβ6 ligand was determined by the formula: […]

T1 sequence (P06756 31-1048, chain 1 of 2): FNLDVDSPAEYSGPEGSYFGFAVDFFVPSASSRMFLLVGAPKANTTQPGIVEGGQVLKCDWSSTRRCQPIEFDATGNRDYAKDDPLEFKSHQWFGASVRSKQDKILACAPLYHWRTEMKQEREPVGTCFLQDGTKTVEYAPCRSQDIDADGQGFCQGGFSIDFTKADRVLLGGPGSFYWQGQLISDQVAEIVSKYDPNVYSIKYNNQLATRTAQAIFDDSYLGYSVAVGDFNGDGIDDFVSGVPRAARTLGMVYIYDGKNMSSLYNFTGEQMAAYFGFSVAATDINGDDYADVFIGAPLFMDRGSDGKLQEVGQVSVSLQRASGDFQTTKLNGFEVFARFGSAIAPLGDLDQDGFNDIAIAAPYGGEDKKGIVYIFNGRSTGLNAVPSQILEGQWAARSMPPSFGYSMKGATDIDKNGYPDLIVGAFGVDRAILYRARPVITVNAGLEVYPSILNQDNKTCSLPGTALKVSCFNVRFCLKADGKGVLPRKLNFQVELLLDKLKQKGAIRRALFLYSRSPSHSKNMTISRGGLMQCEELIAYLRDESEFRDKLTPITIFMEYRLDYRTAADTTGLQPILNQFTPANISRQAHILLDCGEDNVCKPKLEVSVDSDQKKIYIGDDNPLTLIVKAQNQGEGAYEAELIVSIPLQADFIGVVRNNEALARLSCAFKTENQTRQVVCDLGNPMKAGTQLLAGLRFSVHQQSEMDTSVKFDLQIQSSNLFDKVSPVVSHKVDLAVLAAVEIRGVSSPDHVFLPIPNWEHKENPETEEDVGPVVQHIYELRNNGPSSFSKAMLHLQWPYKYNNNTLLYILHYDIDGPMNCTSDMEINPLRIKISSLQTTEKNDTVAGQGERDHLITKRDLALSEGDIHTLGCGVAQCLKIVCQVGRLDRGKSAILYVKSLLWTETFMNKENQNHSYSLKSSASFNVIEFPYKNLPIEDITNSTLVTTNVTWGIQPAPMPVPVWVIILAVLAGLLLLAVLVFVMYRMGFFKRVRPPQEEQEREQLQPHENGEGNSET
T1 sequence (P18564 22-788, chain 2 of 2): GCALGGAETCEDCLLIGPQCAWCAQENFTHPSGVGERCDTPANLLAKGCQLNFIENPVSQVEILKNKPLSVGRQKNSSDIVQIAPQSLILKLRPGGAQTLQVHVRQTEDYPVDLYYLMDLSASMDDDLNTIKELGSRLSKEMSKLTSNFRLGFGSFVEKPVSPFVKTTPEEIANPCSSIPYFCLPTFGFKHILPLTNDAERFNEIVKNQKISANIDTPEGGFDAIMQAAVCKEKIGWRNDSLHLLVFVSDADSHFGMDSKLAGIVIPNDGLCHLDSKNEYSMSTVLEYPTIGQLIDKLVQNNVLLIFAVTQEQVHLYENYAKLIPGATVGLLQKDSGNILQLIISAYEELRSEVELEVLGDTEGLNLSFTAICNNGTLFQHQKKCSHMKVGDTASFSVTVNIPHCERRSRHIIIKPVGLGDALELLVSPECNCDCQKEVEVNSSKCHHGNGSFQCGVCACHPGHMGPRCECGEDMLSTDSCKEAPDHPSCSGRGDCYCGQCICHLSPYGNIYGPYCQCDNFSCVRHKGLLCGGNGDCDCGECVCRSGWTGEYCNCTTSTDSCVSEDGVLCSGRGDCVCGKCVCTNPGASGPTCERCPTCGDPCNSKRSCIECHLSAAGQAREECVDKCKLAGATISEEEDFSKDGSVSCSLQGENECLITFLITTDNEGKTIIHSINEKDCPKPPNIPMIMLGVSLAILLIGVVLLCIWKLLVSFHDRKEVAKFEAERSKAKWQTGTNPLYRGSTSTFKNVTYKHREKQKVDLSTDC

B1: RGELATLRQL (RGE control) (peptide)
peptide: RGELATLRQL
modifications: not fully specified; printed as RGELATLRQL (RGE control)
notes: Negative control; Tested as ligand-(PEG)8-K-HyNic conjugated to Cy5-labelled 1170-100B polymer
Regarding B1, in the assay with αvβ6 integrin [1], the binding result is recorded as “no binding (tested: 5 µg/ml (polymer-Cy5 concentration))”. Moreover, in the assay with αvβ6 integrin [2], the “MFI (specific MFI ratio, sample/no-ligand)” value amounted to 0.99 ratio.
